In article PMC13006735 (Research, 2026):

Molecular target: Sudan virus (SUDV) glycoprotein GP (Sudan ebolavirus, strain  for …, UniProt Q7T9D9)
Experiment: SPR
Conditions: both partners purified

B1:  (antibody, V domains shown)
VH: EVQLVESGGGLVKPGGSLRLSCAASGFTFSNAWMSWVRQAPGKGLEWVGRIKSKTDGGTIDYAAPVKGRFTISRDDSKNTVYLQMTSLKTEDTAVYYCTTYTEDMRYFDWLLRGGETFDYWGQGTLVTVSS
VL: DIRLTQSPSSLSASVGDRVTITCRASQYISTYLNWYQQKPGKAPKLLIYAAYNLQSGVPSRFSGSRFGTDFSLTISSLQPEDFATYHCQQSYSTPGRYTFGQGTKVEIK
notes: also called H27Q/S52Y/G66R-LC variant
In the case of B1, the Kd is reported as 349 pM.

B2:  (antibody, V domains shown)
VH: EVQLVESGGGLVKPGGSLRLSCAASGFTFSNAWMSWVRQAPGKGLEWVGRIKSKTDGGTIDYAAPVKGRFTISRDDSKNTVYLQMTSLKTEDTAVYYCTTYTEDMRYFDWLLRGGETFDYWGQGTLVTVSS
VL: DIRLTQSPSSLSASVGDRVTITCRASHYISTYLNWYQQKPGKAPKLLIYYAYNRQSGVPSRFSGSGFGTDFSLTISSLQPEDFATYHCQQSYSTPGRYTFGQGTKVEIK
notes: also called A50Y/S52Y/L54R-LC variant
For B2, the Kd was 248 pM.
